Laboratory results: doi:10.1101/2024.01.09.574565, “Human coronavirus HKU1 recognition of the TMPRSS2 host receptor” (bioRxiv, 2024)

Experiments:
[1] = molecular target: HKU1 isolate N1 (genotype A) RBD, wildtype, avi-tagged and biotinylated (UniProt Q5MQD0); experiment: BLI; settings: read off a plot; for response: parent: est. 0.51
[2] = molecular target: human TMPRSS2 ectodomain harboring the S441A residue substitution and the C379-T447C disulfide bond (UniProt O15393); experiment: BLI; settings: parent: est. 0.54; read off a plot
[3] = molecular target: human TMPRSS2 ectodomain, active (S441), with the C379-T447C disulfide bond (human, UniProt O15393 106-492, T447C); experiment: enzyme inhibition kinetics (fluorogenic peptide substrate); 5 nM TMPRSS2 with serial dilutions of Boc-QAR-AMC in the presence of 215, 72 or 24 nM HKU1 RBD, 2 min preincubation, 22 °C; fit of competitive inhibition; settings: both partners purified
[4] = glycan lost

| Molecule | percent of parent [1] | also measured |
| --- | --- | --- |
| human TMPRSS2 ectodomain, active (S441), with the C379-T447C disulfide bond (from UniProt O15393) Y469N | 5.7 % WT | – |
| human TMPRSS2 ectodomain, active (S441), with the C379-T447C disulfide bond (from UniProt O15393) S463T | 2.7 % WT | – |
| human TMPRSS2 ectodomain, active (S441), with the C379-T447C disulfide bond (from UniProt O15393) R470A | – | response [1]: 0.15 nm |
| human TMPRSS2 ectodomain, active (S441), with the C379-T447C disulfide bond (from UniProt O15393) L419M | 30 % WT | – |
| human TMPRSS2 ectodomain, active (S441), with the C379-T447C disulfide bond (from UniProt O15393) R413K | 52 % WT | – |
| human TMPRSS2 ectodomain, active (S441), with the C379-T447C disulfide bond (from UniProt O15393) S441A | 95 % WT | – |
| human TMPRSS2 ectodomain, active (S441), with the C379-T447C disulfide bond (from UniProt O15393) S412N | 77 % WT | – |
| human TMPRSS2 ectodomain, active (S441), with the C379-T447C disulfide bond (from UniProt O15393) Y414S | 14 % WT | – |
| human TMPRSS2 ectodomain, active (S441), with the C379-T447C disulfide bond (from UniProt O15393) Y414L | 2.2 % WT | – |
| human TMPRSS2 ectodomain, active (S441), with the C379-T447C disulfide bond (from UniProt O15393) R470K | 2.1 % WT | – |
| HKU1 isolate N1 (genotype A) RBD, wildtype, avi-tagged and biotinylated (from UniProt Q5MQD0) Y528A | – | response [2]: 0.11 nm |
| human TMPRSS2 ectodomain, active (S441), with the C379-T447C disulfide bond (from UniProt O15393) S463Y | 2.3 % WT | – |
| human TMPRSS2 ectodomain, active (S441), with the C379-T447C disulfide bond (from UniProt O15393) Y414A | – | response [1]: 0.11 nm |
| HKU1 isolate N1 (genotype A) RBD, wildtype, avi-tagged and biotinylated (from UniProt Q5MQD0) E505A | – | response [2]: 0.37 nm |
| human TMPRSS2 ectodomain, active (S441), with the C379-T447C disulfide bond (from UniProt O15393) R413V | 64 % WT | – |
| human TMPRSS2 ectodomain, active (S441), with the C379-T447C disulfide bond (from UniProt O15393) R409T | 58 % WT | – |
| human TMPRSS2 ectodomain, active (S441), with the C379-T447C disulfide bond (from UniProt O15393) A468P | 57 % WT | – |
| human TMPRSS2 ectodomain, active (S441), with the C379-T447C disulfide bond (from UniProt O15393) Y469A | – | response [1]: 0.36 nm |
| human TMPRSS2 ectodomain, active (S441), with the C379-T447C disulfide bond (from UniProt O15393) K340D | 38 % WT | – |
| human TMPRSS2 ectodomain, active (S441), with the C379-T447C disulfide bond (from UniProt O15393) S463F | 2.3 % WT | – |
| human TMPRSS2 ectodomain, active (S441), with the C379-T447C disulfide bond (from UniProt O15393) T341S | 61 % WT | – |
| HKU1 isolate N1 (genotype A) RBD, wildtype, avi-tagged and biotinylated (from UniProt Q5MQD0) H488A | – | response [2]: 0.17 nm |
| human TMPRSS2 ectodomain, active (S441), with the C379-T447C disulfide bond (from UniProt O15393) L419A | 2.7 % WT | – |
| human TMPRSS2 ectodomain, active (S441), with the C379-T447C disulfide bond (from UniProt O15393) D417N | 7.5 % WT | – |
| human TMPRSS2 ectodomain, active (S441), with the C379-T447C disulfide bond (from UniProt O15393) V415I | 47 % WT | – |
| human TMPRSS2 ectodomain, active (S441), with the C379-T447C disulfide bond (from UniProt O15393) R409K | 36 % WT | – |
| HKU1 isolate N1 (genotype A) RBD, wildtype, without avi tag (domain or fragment, also called HKU1 RBD; HKU1 RBD (without avi tag); not shown: His8, C-terminal, kept) RIPDLPDCDIDKWLNNFNVPSPLNWERKIFSNCNFNLSTLLRLVHTDSFSCNNFDESKIYGSCFKSIVLDKFAIPNSRRSDLQLGSSGFLQSSNYKIDTTSSSCQLYYSLPAINVTINNYNPSSWNRRYGFNNFNLSSHSVVYSRYCFSVNNTFCPCAKPSFASSCKSHKPPSASCPIGTNYRSCESTTVLDHTDWCRCSCLPDPITAYDPRSCSQKKSLVGVGEHCAGFGVDEEKCGVLDGSYNVSCLCSTDAFLGWSYDTCVSNNRCNIFSNFILNGINSGTTCSNDLLQPNT | – | Ki [3]: 38 ± 5 nM |
| HKU1 spike (S) glycoprotein: S357A (protein) parent chain: MLLIIFILPTTLAVIGDFNCTNFAINDLNTTVPRISEYVVDVSYGLGTYYILDRVYLNTTILFTGYFPKSGANFRDLSLKGTTYLSTLWYQKPFLSDFNNGIFSRVKNTKLYVNKTLYSEFSTIVIGSVFINNSYTIVVQPHNGVLEITACQYTMCEYPHTICKSKGSSRNESWHFDKSEPLCLFKKNFTYNVSTDWLYFHFYQERGTFYAYYADSGMPTTFLFSLYLGTLLSHYYVLPLTCNAISSNTDNETLQYWVTPLSKRQYLLKFDNRGVITNAVDCSSSFFSEIQCKTKSLLPNTGVYDLSGFTVKPVATVHRRIPDLPDCDIDKWLNNFNVPSPLNWERKIFSNCNFNLSTLLRLVHTDSFSCNNFDESKIYGSCFKSIVLDKFAIPNSRRSDLQLGSSGFLQSSNYKIDTTSSSCQLYYSLPAINVTINNYNPSSWNRRYGFNNFNLSSHSVVYSRYCFSVNNTFCPCAKPSFASSCKSHKPPSASCPIGTNYRSCESTTVLDHTDWCRCSCLPDPITAYDPRSCSQKKSLVGVGEHCAGFGVDEEKCGVLDGSYNVSCLCSTDAFLGWSYDTCVSNNRCNIFSNFILNGINSGTTCSNDLLQPNTEVFTDVCVDYDLYGITGQGIFKEVSAVYYNSWQNLLYDSNGNIIGFKDFVTNKTYNIFPCYAGRVSAAFHQNASSLALLYRNLKCSYVLNNISLTTQPYFDSYLGCVFNADNLTDYSVSSCALRMGSGFCVDYNSPSSSSSRRKRRSISASYRFVTFEPFNVSFVNDSIESVGGLYEIKIPTNFTIVGQEEFIQTNSPKVTIDCSLFVCSNYAACHDLLSEYGTFCDNINSILDEVNGLLDTTQLHVADTLMQGVTLSSNLNTNLHFDVDNINFKSLVGCLGPHCGSSSRSFFEDLLFDKVKLSDVGFVEAYNNCTGGSEIRDLLCVQSFNGIKVLPPILSESQISGYTTAATVAAMFPPWSAAAGIPFSLNVQYRINGLGVTMDVLNKNQKLIATAFNNALLSIQNGFSATNSALAKIQSVVNSNAQALNSLLQQLFNKFGAISSSLQEILSRLDALEAQVQIDRLINGRLTALNAYVSQQLSDISLVKFGAALAMEKVNECVKSQSPRINFCGNGNHILSLVQNAPYGLLFMHFSYKPISFKTVLVSPGLCISGDVGIAPKQGYFIKHNDHWMFTGSSYYYPEPISDKNVVFMNTCSVNFTKAPLVYLNHSVPKLSDFESELSHWFKNQTSIAPNLTLNLHTINATFLDLYYEMNLIQESIKSLNNSYINLKDIGTYEMYVKWPWYVWLLISFSFIIFLVLLFFICCCTGCGSACFSKCHNCCDEYGGHHDFVIKTSHDD | – | other: neutralisation sensitivity, other: geometric mean ID50 dilution [4]: increases |
